The nature of the series: soluble on expression in E. coli; label from the status in PepcDB or PDB records.
As for “MRAVWVLGIDTSCDDTGVGLVRDGKVVVNLVASQVRLHEAFGGVVPELASREHLKALPLLVERALAEAGLRPKDLDLVAATRGPGLIGALLVGYTFAKGMAFALDRPFYAVHHLEGHIAAAWPEGLPPPFLALVASGGHTHLYEVLDLGRYRLLGATRDDAAGEAFDKVARLLGLGFPGGPEVERLAEEAEEAIPFPVPLRGQEGYDFSFSGLKTKALHLVEKGLPKAALAKGFQEAAIAHLAEVVLKAAKDTGHRVLLVAGGVAANRALQERFKEAGLEVHFPPRGLSQDNGAMIALAAWRRHQRGFPPSPLSLGATAYWPLEEA”, the “soluble on expression in E. coli” value is “soluble”. The result for “MGSDKIHHHHHHMPNRDSEKLITDGYTTTLLGDELMVCENMKHIRVTSVPSYTEVGMIILCLRGTAKICIFDNIHILAKNELAVILPGQLVSITELSPDFLCNIVVLSRALFDDTLSGFSRFSPLFFVYMRSHYWYELTGEEIERFKLFYGSLSQRAKDPTHFFRRESVLLLLRIFYLDIYNEYYSKSHLMKGGSDMGKSKLAHDFFCLIMQHYREHKDVAFYADKLCITSKYLSMVIKEASGKTAKDWIVEYAILEIKAMLKNSTMNIQEISIKTNFANQSSLGRFFRKHTGMTLTEYRMHR” reads “not soluble”; that for “MSSRTANSSSRNDESLRTGQHKENPNYWGFANFPNQVFRRAVKNGFDFTLMVVGRSGLGKSTFINTLFLAEINNLNEKESAPTHPHPSTVRVEEKLVKLVENSVSLNLTLVDTPGFGDAVNNSKCWEPIVNYVESKFFEQFCEETRIDRGEKIVDKCVHLCLYFIEPSGHGLKPIDIELMKHLHGRVNIVPVISKADCLTRDELLRFKKQIVKDAETAEIKLYKFPELEDPYTDKVAIEKLRKALPFAIIGSNMLKEKDGKKIRYREYPWGTVEVENMQHNDFLTLRDMIIRTNLIDMIDVTRNVHYENFRFRQMEGLPKNEKNRDPFTHLEEERRQKEQDLDEKRNTLEKVFTEKTSARKKRSDERMSALEELEQQNKQKIDAKRAEIIRLRHEISELKNGNLTSSQTSLAMYNENNHSQNSTLNSTTKSSPPPTSATSSSSGTMKKRMGGLGLFNRN”, “not soluble”; that for “MAHHHHHHMAEPNASGFRVIQILENYGVASSDIKKLMECGFYTVESAAYAPKKAILAVKGISENKAEKIMAECAKLVPMGFTSAVAYHEARKEIIMVTTGSREVDKLLGGGIETGSITELFGEFRTGKTQLCHTLCVTCQLPISQGGAEGMALYIDTEGTFRPERLVAVAERYKLDPEDVLANVACARAFNTDHQQQLLLQASAMMAENRFALIIVDSATALYRTDYSGRNELAARQMHLGKFLRSLHNLAEEYGVAVVVTNQVVANVDGSAQMFQADSKKPIGGHIMAHASTTRLSLRKGRGEQRIIKVYDSPCLAEAEAIFGIYDDGVGDARD”, “not soluble”. Consider “GPGSMDKDVDVTKLTAQALQVHIERCERLMKQPALLSRLPDGGNGIRERYSKYLAEVERRKTNGAASALTAQKDGDGEVRDEDEAQSRPAAVEGCQDEKTVGDTTTAEVTYEEEARAIGERHRHFRVPVEEIVRRTFGGSLCDSELQRIINDVPPGFFLTYEETMSMERKLMEEERAETLERLRRQRSAGGVQ”, for which the “soluble on expression in E. coli” value is “soluble”. With “MYTQTLYELSQEAERLLQLSRQQLQLLEKMPLSVPGDDAPQLALPWSQPNIAERHAMLNNELRKISRLEMVLAIVGTMKAGKSTTINAIVGTEVLPNRNRPMTALPTLIRHTPGQKEPVLHFSHVAPIDCLIQKLQQRLRDCDIKHLTDVLEIDKDMRALMQRIENGVAFEKYYLGAQPIFHCLKSLNDLVRLAKALDVDFPFSAYAAIEHIPVIEVEFVHLAGLESYPGQLTLLDTPGPNEAGQPHLQKMLNQQLARASAVLAVLDYTQLKSISDEEVREAILAVGQSVPLYVLVNKFDQQDRNSDDADQVRALISGTLMKGCITPQQIFPVSSMWGYLANRARHELANNGKLPPPEQQRWVEDFAHAALGRRWRHADLADLEHIRHAADQLWEDSLFAQPIQMLLHAAYANASLYALRSAAHKLLNYAQQAREYLDFRAHGLNVACEQLRQNIHQIEESLQLLQLNQAQVSGEIKHEIELALTSANHFLRQQQDALKVQLAALFQDDSEPLSEIRTRCETLLQTAQNTISRDFTLRFAELESTLCRVLTDVIRPIEQQVKMELSESGFRPGFHFPVFHGVVPHFNTRQLFSEVISRQEATDEQSTRLGVVRETFSRWLNQPDWGRGNEKSPTETVDYSVLQRALSAEVDLYCQQMAKVLAEQVDESVTAGMNTFFAEFASCLTELQTRLRESLALRQQNESVVRLMQQQLQQTVMTHGWIYTDAQLLRDDIQTLFTAERY”, the “soluble on expression in E. coli” value is listed as “not soluble”. As to “MSISFEKLRITLKSVGVPVTRDKAEKGTDYPYIVYSNVSQGKKMASSKVHRRMPYYQISFYTTGTEKDLIALENALEEAGIPYTDFVGIQGDENDDTVTNFYTYVRCIEDGK”, the “soluble on expression in E. coli” value is reported as “soluble”. Take “SDHVDLPYNLTATKIDSDVFVVTDRDFYSSNVLVAKMLDGTVVIVSSPFENLGTQTLMDWVAKTMKPKKVVAINTHFHLDGTGGNEIYKKMGAETWSSDLTKQLRLEENKKDRIKAAEFYKNEDLKRRILSSHPVPADNVFDLKQGKVFSFSNELVEVSFPGPAHSPDNVVVYFPKKKLLFGGCMIKPKELGYLGDANVKAWPDSARRLKKFDAKIVIPGHGEWGGPEMVNKTIKVAEKAVGEMRL”: the “soluble on expression in E. coli” value is recorded as “soluble”. Consider “MAHHHHHHMDQSRHKRTARHQYLGARTKITLKLQLTRIQHRGFHVHVHSRTTPLDRQAHEDALQQRDVECLLWRVKMQQIQQNRSGEGHVDKAQTTHTGIRIVHGADPATVNAAGLRVLRIGERERPKTVRNRSWQTRVTVAASSTHALTAADAARPRSEAHGVHSARATVQHRHGRPNIEVDSVIRHRRAS”, for which the “soluble on expression in E. coli” value is recorded as “not soluble”. As for “MQKIDEKLQLMNTIAKIYRGSIKEFNNRLGKLMNLSYLDFSILKATSEEPRSMVYLANRYFVTQSAITAAVDKLEAKGLVRRIRDSKDRRIVIVEITPKGRQVLLEANEVLRNLVNEMLSDVENVEELLEGLNKILSRIGSSKD”, the “soluble on expression in E. coli” value is given as “soluble”.

For “SLDEAEMKAVNIHDGIDGTLMILHHRLKAAIRRPKIEIVKDYAKLPLIECYPGKLNQVFMNILANAIDALEEGMGNEEIPPPTGQITIRTEVLDNQWVVIRIADNGPGMKEEVIRRIYDPFFTTKDVGKGTGLGMAISYQIVVDKHGGMLKCRSQPGEGTEFWIQIPVNCALADAAEEG”, the “soluble on expression in E. coli” value is reported as “soluble”. Regarding “MAHHHHHHMNSKDTNELKRGAGYLKEKAIIGLTRVTGNELDRAIYKVTSHKLKAPKEKHMQRVLAATRGYSSQKTHKGRNTCEYIVSEFEKRLHTHNWIVVLKTLVTFHRLMKDGSDEVNNCIQQNRNIFCFRNIKDLSESSEGAVQSVFIRQYMYYLEERSSSQRKLGASKRMENSEFGVFLRSLDVDTLGPVFESLLVQLSALVEVQYKEAIVDNFCTMEAFQRLVNDGKLLYQILSDRAIFILDGFSGFTLQQKKDWVRRYREYTVVGERLRLLFESIANSKRMFDEPPPPLKALPGSLLESLEREVRLSSIAHEDITETLESLGITADEKTPLKATTSDGTMAIYSPVATEKALDTTETGAPPVTEPKKESGFSIDDLFVPPPVTDSHQQTSYNPSTIPQGTQMEGPLIQTEANPNMTYTFPTGVPVGQNFFGQQPTGNSLTWEAPSPAPGSMQPQSAAGIVPSWSDSSASWGRGNCGSNTVDPFKDLYASQKGGQ”, the “soluble on expression in E. coli” value is recorded as “soluble”. As to “MTVEASRPARSRQAVIFCYNAGYLPFALHAAERIDRLTPGRAFDICICHGEEPILVPDSLSRLDVRLIRIDTTGVFTGLRLDPGRTHDVYLRLALPQALAADYDRILYLDADIFVQGGDFTALLGLDLGNHPLGAVRDNIQWRTPERRAEQFRRLGIPAAPYFNAGLLLMDVARYNEMNLLDRCVELGRREASRMIRHDQNLYNAVLRGDWAELSPMWNWQYSWSARLFEAMRYPHIVHFIGTLKPWADRKGHYSPRFAQSYDRFIADHFPDRPRNPVSGGLSPDSRMMRRMLVKHFLSSSKLARYLDRFPSDLTVIRLEHHHHHH”, the “soluble on expression in E. coli” value is “not soluble”. Consider “QKPKLLYCSNGGYFLRIFPDGKVDGTRDRSDPYIQLQFYAESVGEVYIKSLETGQYLAMDSDGQLYASQSPSEECLFLERLEENNYNTYKSKVHADKDWFVGIKKNGKTKPGSRTHFGQKAILFLPLPVSSD”, for which the “soluble on expression in E. coli” value is recorded as “soluble”. The result for “MNQNQNKKTKIVALSMMNSQTSGNPSRGTTKFESYTFDYWQYIDTLVYWGGSSGEGIIVTPSADVIDEAHSNGVPVLGTIFLPPKEYGGKVDWVKTMLKKDEQGQYPFASQMVKVAKTYGFEGWFINEETQGLNADDAANMKALIQQVKKEDSSLQIMWYDAMTKDGKVDWQNQLNDQNATFVQDKAADAMFLNFWWTQNNLADQKLLEKSNLYAKNHNIDPYNIYAGIDVQAKDVQTPVKWNLLEKGNQATQTSIGLYAASATYTNASNWDDFQNRESAFWVNQKADPRQVDHSVNESWTGLSKYVLEKSAISGNEFNTNFNLGNGYNYFKAGQKISEMDWNDRSLAGILPSYRWIIDNEGKNKISPSFDFANAYNGGNSLKFMAEHLDAGKSSNITLFASDLKIAMGAKFSVSMRSDQALKVSAILELANGQKVSIAGDKSLTENWSKLEHHHHHH” reads “soluble”. As for “MAISVFDLFSIGIGPSSSHTVGPMRAARMFARRLRNEELLDSVASVRVELYGSLGATGHGHGTPKAVLLGLEGDSPRTVDVESADDRVETIKSSGRISLLGDHEIAFAYDDDMVLHRRKALPYHANGMTLWAYDAEGAEVLTKTYYSVGGGFVVDEDAVGADRIVLDDTVLKYPFRTGDELLRLARETGLSISALMLENERAWRDEDEIREGLLEIWRVMRACVDRGMTREGILPGGLKVRRRAANTARKLRSEGDPQALAMEWITLYAMAVNEENAAGGRVVTAPTNGAAGIIPAVLHYYMNFVPGADEDGVVRFLLAAGAIGMLFKENASISGAEVGCQGEVGSACSMAAGALAEVLGGSPEQVENAAEIGMEHNLGLTCDPVGGLVQIPCIERNGMAAVKAVTAARMAMRGDGSHKVSLDKVIKTMKETGADMSVKYKETARGGLAVNIIEC”, the “soluble on expression in E. coli” value is listed as “not soluble”. Regarding “MGSDKIHHHHHHMIREVKFESQDRRIKQIIAALNENGIKDIEEANAICEAAGLDPYKTCEETQPICFENAKWAYVVGSAIALKKGCKNAAEAAEAIGIGLQAFCIPGSVADDRKVGIGHGNLAAMLLREETKCFAFLAGHESFAAAEGAIKIAAKADKVRKEPLRCILNGLGKDAAQIISRINGFTYVQTEFDYFTGELKVVREIAYSDGPRAKVKCYGADDVREGVAIMWKEGVDVSITGNSTNPTRFQHPVAGTYKKERVLAGKPYFSVASGGGTGRTLHPDNMAAGPASYGMTDTMGRMHSDAQFAGSSSVPAHVEMMGFLGIGNNPMVGCTVACAVDVATALSK”, the “soluble on expression in E. coli” value is given as “not soluble”. As for “MALKVIKISRVSPATASVDPLIVPLSFFDLQWLKLNPTEQVFFYKLTESSSSRDVFYSSILPKLERSLSLILTHFRLFTGHLKWDSQDPKPHLVVLSGDTLSLTVAETDADFSRISGRGLRPELELRPLIPELPIYSDSGAVVSLQVTLFPKQGFCIGTTAHHVVLDGKTAEKFNKAWAHTCKHGTIPKILPTVLDRSVVNVPAGLEQKMLELLPYLTEDDKENGRTLKLPPVKEINAKDNVLRITIEISPENIEKLKERAKKESTRAELHLSTFVVTFAHVWTCMVKARSGDPNRPVRFMYAADFRNRLEPPVPVTYFGTCVLAMDFYKYKAKEFMGEDGFVNTVEILSDSVKRLASQGVESTWKVYEEGTKTMKWGTQLLVVNGSNQIGMYETDFGWGRPIHTETMSIYKNDEFSMSKRRDGIGGVEIGISLKKLEMDTFLSLFYKWIGN”, the “soluble on expression in E. coli” value was “soluble”.
